Experimental data as given in EP4624486A1 (Guangdong Raynovent Biotech Co., Ltd., dated 2025).
Bridge positions count the residues as written; N and C are the ends. Square brackets hold non-standard residues; d marks the D form. Ends that are not written are not given here. αMeL = CC(C)C[C@](C)(N)C(=O)O; Aib = CC(C)(N)C(=O)O

T1: GIP receptor (GIPR) (UniProt P48546 22-466, limits assumed)
T1 sequence (looked up): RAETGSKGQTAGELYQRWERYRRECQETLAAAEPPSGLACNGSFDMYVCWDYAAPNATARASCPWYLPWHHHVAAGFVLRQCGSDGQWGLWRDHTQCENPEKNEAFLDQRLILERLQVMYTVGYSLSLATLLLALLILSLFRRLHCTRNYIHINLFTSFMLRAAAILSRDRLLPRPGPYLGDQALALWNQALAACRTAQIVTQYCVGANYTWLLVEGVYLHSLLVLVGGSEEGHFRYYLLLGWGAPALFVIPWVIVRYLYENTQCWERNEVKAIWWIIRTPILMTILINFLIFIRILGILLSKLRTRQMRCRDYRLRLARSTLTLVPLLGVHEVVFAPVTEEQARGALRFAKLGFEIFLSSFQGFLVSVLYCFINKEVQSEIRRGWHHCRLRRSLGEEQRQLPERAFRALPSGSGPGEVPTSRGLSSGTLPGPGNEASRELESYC


Experiments:
Assay in all cases: cell-based or functional assay
GLP-1 receptor (GLP-1R) = GLP-1 receptor (GLP-1R) (UniProt P43220 24-463, limits assumed)
GIP receptor (GIPR) = molecular target: T1, GIP receptor (GIPR)
GCG receptor (GCGR) = GCG receptor (GCGR) (UniProt P47871 26-477, limits assumed)
Sequence of GCG receptor (GCGR) (P47871 26-477 limits assumed): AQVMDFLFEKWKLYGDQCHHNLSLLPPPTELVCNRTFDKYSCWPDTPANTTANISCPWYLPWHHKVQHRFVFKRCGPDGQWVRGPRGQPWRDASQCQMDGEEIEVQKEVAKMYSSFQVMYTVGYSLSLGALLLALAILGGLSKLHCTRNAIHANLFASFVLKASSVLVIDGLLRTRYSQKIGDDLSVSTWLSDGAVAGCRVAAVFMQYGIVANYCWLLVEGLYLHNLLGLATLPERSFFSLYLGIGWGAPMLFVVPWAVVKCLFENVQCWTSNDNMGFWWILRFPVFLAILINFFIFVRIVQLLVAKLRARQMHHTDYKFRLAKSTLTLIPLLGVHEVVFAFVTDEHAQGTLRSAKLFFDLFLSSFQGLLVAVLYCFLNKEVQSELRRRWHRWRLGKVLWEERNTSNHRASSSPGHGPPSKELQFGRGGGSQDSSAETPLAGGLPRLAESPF

| Binder | GLP-1 EC50 (nM); cAMP, agonistic activity (GLP-1 receptor (GLP-1R)) [nM] | GIP-1 EC50 (nM); cAMP, agonistic activity (GIP receptor (GIPR)) [nM] | GCG EC50 (nM); cAMP, agonistic activity (GCG receptor (GCGR)) [nM] |
| --- | --- | --- | --- |
| Y[Aib]QGTFTSDYSI[αMeL]LDKKAQ[Aib]KFIEFLLKGGPSSGAPPPS-NH2 (linker 21-28 via Ida, Lys, Lys, γGlu, C20 diacid; also: further groups not given here) [Example 26] | 0.014 | 0.0005 | 0.11 |
| Y[Aib]QGTFTSDYSI[αMeL]KDKKAQ[Aib]AFIEYLLKGGPSSGAPPPS-NH2 (linker 14-17 via Ida, Lys, Lys, γGlu, C20 diacid; also: further groups not given here) [Example 41] | 0.003 | 0.0003 | 0.015 |
| Y[Aib]QGTFTSDYSI[αMeL]LDKKAQ[Aib]KFIEYLLEGGPSSGAPPPS-NH2 (linker 17-21 via (2-2-oxoethyl)‑glycine, AEEA, AEEA, γGlu, C20 diacid) [Example 1] | 0.009 | 0.001 | 0.024 |
| Y[Aib]QGTFTSDYSI[αMeL]KDKKAQ[Aib]AFIEYLLKGGPSSGAPPPS-NH2 (linker 14-17 via (2-2-oxoethyl)‑glycine, AEEA, γGlu, C20 diacid) [Example 38] | 0.002 | 0.0002 | 0.018 |
| Y[Aib]QGTFTSDYSI[αMeL]KDKKAQ[Aib]AFIQYLLEGGPSSGAPPPS-NH2 (bridge 14-17; not fully specified (bridges); also: stapled body (lipidated) structure only in drawing chem0245) [Example 42] | 0.007 | 0.0005 | 0.025 |
| Y[Aib]QGTFTSDYSI[αMeL]LDKKAQ[Aib]KFIEFLIEGGPSSGAPPPS-NH2 (linker 17-21 via Ida, Lys, Lys, γGlu, C20 diacid) [Example 23] | 0.007 | 0.0004 | 0.096 |
| Y[Aib]QGTFTSDYSI[αMeL]KDKKAQ[Aib]AFIEYLLEGGPSSGAPPPS-NH2 (linker 14-17 via (2-2-oxoethyl)‑glycine, AEEA, γGlu, C20 diacid) [Example 21] | 0.02 | 0.0008 | 0.039 |
| Y[Aib]QGTFTSDYSI[αMeL]LDKKAQ[Aib]KFIEFLLEGGPSSGAPPPS-NH2 (linker 17-21 via Ida, Lys, Lys, γGlu, C20 diacid) [Example 22] | 0.009 | 0.0004 | 0.034 |
| Y[Aib]QGTFTSDYSK[αMeL]LDKKAQ[Aib]AFIEFLLEGGPSSGAPPPS-NH2 (linker 12-16 via Ida, Lys, Lys, γGlu, C20 diacid; also: further groups not given here) [Example 28] | 0.011 | 0.0008 | 0.11 |
